Measurements from the supplement of paper PMC9112550, “Optimization of the antimicrobial peptide Bac7 by deep mutational scanning” (BMC Biology, 2022).

System: Escherichia coli TOP10
Assay: shrunken log2 fold change of peptide-encoding DNA abundance (4.5 h post-induction vs induction); higher = less antimicrobial activity (less host growth inhibition)
Conditions: time post-induction: 4.5 h; library: site-saturation at positions 5, 18, 19, 20
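Note: peptides expressed intracellularly from a pBAD plasmid library in pooled LB shake-flask culture, induced with 0.3% L-arabinose, DNA abundance read by NGS, three biological replicates, DESeq2 with apeglm shrinkage.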

Sequence | shrunken log2 fold change
RRIRLRPPRLPRPRPRPVWGPRP | 0.0435
RRIRWRPPRLPRPRPRPTVDPRP | 0.296
RRIRVRPPRLPRPRPRPCCTPRP | -0.247
RRIRARPPRLPRPRPRPISHPRP | -0.131
RRIRYRPPRLPRPRPRPTLTPRP | -0.0404
RRIRFRPPRLPRPRPRPQTVPRP | -0.211
RRIRARPPRLPRPRPRPCTGPRP | -0.041
RRIRRRPPRLPRPRPRPGFMPRP | 0.252
RRIRHRPPRLPRPRPRPSRVPRP | -0.0634
RRIRHRPPRLPRPRPRPFYCPRP | -0.946
RRIRLRPPRLPRPRPRPYWLPRP | -0.54
RRIRHRPPRLPRPRPRPPQFPRP | 0.0105
RRIRVRPPRLPRPRPRPMVQPRP | 0.159
RRIRWRPPRLPRPRPRPLRCPRP | 0.242
RRIRARPPRLPRPRPRPLSTPRP | 0.319
RRIRPRPPRLPRPRPRPREIPRP | 0.44
RRIRNRPPRLPRPRPRPGIVPRP | 0.367
RRIRLRPPRLPRPRPRPDPDPRP | -0.0677
RRIRHRPPRLPRPRPRPAIMPRP | -0.233
RRIRERPPRLPRPRPRPADTPRP | -0.262
RRIRCRPPRLPRPRPRPNMNPRP | -0.88
RRIRMRPPRLPRPRPRPDDGPRP | 0.038
RRIRTRPPRLPRPRPRPRSEPRP | 0.116
RRIRFRPPRLPRPRPRPTNYPRP | -0.587
RRIRRRPPRLPRPRPRPDMAPRP | 0.373

Sequence | shrunken log2 fold change
RRIRIRPPRLPRPRPRPCQWPRP | 0.0525
RRIRPRPPRLPRPRPRPPMNPRP | -0.036
RRIRKRPPRLPRPRPRPLYNPRP | -0.263
RRIRLRPPRLPRPRPRPYGKPRP | -0.242
RRIRRRPPRLPRPRPRPETAPRP | 0.658
RRIRVRPPRLPRPRPRPTSRPRP | -0.139
RRIRYRPPRLPRPRPRPCVFPRP | -0.123
RRIRERPPRLPRPRPRPLWIPRP | -0.558
RRIRRRPPRLPRPRPRPICVPRP | 0.0261
RRIRQRPPRLPRPRPRPVTWPRP | -0.073
RRIRWRPPRLPRPRPRPGWWPRP | 0.336
RRIRPRPPRLPRPRPRPFPCPRP | -0.0101
RRIRHRPPRLPRPRPRPGSCPRP | -0.108
RRIRARPPRLPRPRPRPIFCPRP | 0.445
RRIRSRPPRLPRPRPRPMNMPRP | -0.118
RRIRIRPPRLPRPRPRPFPSPRP | -0.953
RRIRTRPPRLPRPRPRPWRQPRP | 0.0481
RRIRCRPPRLPRPRPRPYAGPRP | -0.513
RRIRTRPPRLPRPRPRPLFGPRP | -0.186
RRIRRRPPRLPRPRPRPCRQPRP | 0.0284
RRIRRRPPRLPRPRPRPPKTPRP | 0.108
RRIRRRPPRLPRPRPRPYYMPRP | -0.408
RRIRDRPPRLPRPRPRPDHMPRP | -0.0107
RRIRQRPPRLPRPRPRPTTTPRP | -0.126
RRIRHRPPRLPRPRPRPYNQPRP | -0.342

Sequence | shrunken log2 fold change
RRIRVRPPRLPRPRPRPSEDPRP | 0.376
RRIRFRPPRLPRPRPRPANKPRP | -0.546
RRIRHRPPRLPRPRPRPNDKPRP | -0.526
RRIRYRPPRLPRPRPRPPHDPRP | -0.383
RRIRWRPPRLPRPRPRPITPPRP | 0.145
RRIRNRPPRLPRPRPRPHMDPRP | -0.384
RRIRRRPPRLPRPRPRPPAQPRP | 0.535
RRIRMRPPRLPRPRPRPSNLPRP | 0.00954
RRIRLRPPRLPRPRPRPPMTPRP | 0.907
RRIRGRPPRLPRPRPRPPTLPRP | 0.596
RRIRERPPRLPRPRPRPIERPRP | 0.00274
RRIRQRPPRLPRPRPRPIAKPRP | -0.00229
RRIRGRPPRLPRPRPRPYRAPRP | -0.233
RRIRLRPPRLPRPRPRPKKYPRP | -0.143
RRIRHRPPRLPRPRPRPNERPRP | 0.0404
RRIRYRPPRLPRPRPRPFGWPRP | 0.102
RRIRHRPPRLPRPRPRPKCMPRP | -0.29
RRIRPRPPRLPRPRPRPSMIPRP | -0.547
RRIRNRPPRLPRPRPRPDCQPRP | 0.0461
RRIRERPPRLPRPRPRPRGFPRP | -0.0872
RRIRNRPPRLPRPRPRPMAIPRP | -0.00192
RRIRRRPPRLPRPRPRPCGYPRP | 0.0658
RRIRNRPPRLPRPRPRPWPRPRP | -0.0347
RRIRCRPPRLPRPRPRPHGVPRP | 0.015
RRIRPRPPRLPRPRPRPCRHPRP | -0.0363

Sequence | shrunken log2 fold change
RRIRYRPPRLPRPRPRPMKKPRP | 0.0048
RRIRWRPPRLPRPRPRPSHLPRP | -0.517
RRIRERPPRLPRPRPRPLDNPRP | -0.487
RRIRTRPPRLPRPRPRPERTPRP | -0.0336
RRIRFRPPRLPRPRPRPQWLPRP | -0.0613
RRIRIRPPRLPRPRPRPFGPPRP | -0.189
RRIRQRPPRLPRPRPRPEVQPRP | -0.0138
RRIRCRPPRLPRPRPRPHWSPRP | -0.395
RRIRDRPPRLPRPRPRPNCMPRP | 0.111
RRIRGRPPRLPRPRPRPQAEPRP | 1.08
RRIRSRPPRLPRPRPRPTEKPRP | 0.0802
RRIRLRPPRLPRPRPRPAFKPRP | -0.195
RRIRQRPPRLPRPRPRPDCKPRP | -0.0311
RRIRRRPPRLPRPRPRPIGWPRP | 0.217
RRIRFRPPRLPRPRPRPNTLPRP | -0.239
RRIRYRPPRLPRPRPRPHNHPRP | -1.01
RRIRRRPPRLPRPRPRPCHWPRP | 0.092
RRIRIRPPRLPRPRPRPCCVPRP | -0.726
RRIRIRPPRLPRPRPRPSRTPRP | -0.455
RRIRCRPPRLPRPRPRPQRRPRP | -0.023
RRIRERPPRLPRPRPRPQEEPRP | -0.000946
RRIRARPPRLPRPRPRPKCDPRP | 0.39
RRIRPRPPRLPRPRPRPLDWPRP | 0.349
RRIRARPPRLPRPRPRPPIRPRP | -0.131
RRIRPRPPRLPRPRPRPDCMPRP | 0.053

Sequence | shrunken log2 fold change
RRIRNRPPRLPRPRPRPYFAPRP | -0.198
RRIRLRPPRLPRPRPRPYANPRP | -0.165
RRIRERPPRLPRPRPRPYNNPRP | -0.822
RRIRNRPPRLPRPRPRPHQIPRP | -0.247
RRIRNRPPRLPRPRPRPDAEPRP | 0.45
RRIRYRPPRLPRPRPRPQHDPRP | -1.4
RRIRCRPPRLPRPRPRPMGGPRP | 0.145
RRIRIRPPRLPRPRPRPWFHPRP | -0.768
RRIRGRPPRLPRPRPRPSFTPRP | 0.079
RRIRIRPPRLPRPRPRPKPTPRP | 0.448
RRIRERPPRLPRPRPRPEWQPRP | -0.0536
RRIRERPPRLPRPRPRPAATPRP | 0.222
RRIRNRPPRLPRPRPRPKQYPRP | -0.426
RRIRPRPPRLPRPRPRPRHQPRP | 0.31
RRIRCRPPRLPRPRPRPNTSPRP | -0.343
RRIRNRPPRLPRPRPRPFASPRP | -0.0512
RRIRVRPPRLPRPRPRPNEHPRP | -0.00876
RRIRQRPPRLPRPRPRPWKAPRP | -0.112
RRIRMRPPRLPRPRPRPDDSPRP | 0.175
RRIRKRPPRLPRPRPRPQAKPRP | -0.00692
RRIRSRPPRLPRPRPRPAIIPRP | 0.0969
RRIRVRPPRLPRPRPRPDMAPRP | 0.00912
RRIRRRPPRLPRPRPRPASFPRP | 0.309
RRIRVRPPRLPRPRPRPEPTPRP | 0.0442
RRIRQRPPRLPRPRPRPAGDPRP | 0.127

Sequence | shrunken log2 fold change
RRIRMRPPRLPRPRPRPPFVPRP | 0.267
RRIRGRPPRLPRPRPRPERPPRP | 1.28
RRIRFRPPRLPRPRPRPYCMPRP | -0.929
RRIRYRPPRLPRPRPRPNANPRP | -2
RRIRSRPPRLPRPRPRPTTNPRP | 0.00407
RRIRKRPPRLPRPRPRPFGFPRP | -0.137
RRIRARPPRLPRPRPRPYAQPRP | -0.181
RRIRHRPPRLPRPRPRPIGPPRP | -0.00697
RRIRQRPPRLPRPRPRPSWPPRP | -0.0496
RRIRPRPPRLPRPRPRPMRLPRP | 0.0536
RRIRRRPPRLPRPRPRPCDNPRP | 0.0406
RRIRDRPPRLPRPRPRPYQWPRP | 0.0508
RRIRKRPPRLPRPRPRPKQRPRP | 0.393
RRIRERPPRLPRPRPRPQVNPRP | -0.129
RRIRPRPPRLPRPRPRPASPPRP | 0.287
RRIRPRPPRLPRPRPRPWRSPRP | 0.0793
RRIRDRPPRLPRPRPRPETFPRP | 0.00902
RRIRPRPPRLPRPRPRPDARPRP | 0.58
RRIRHRPPRLPRPRPRPHRWPRP | 0.0507
RRIRSRPPRLPRPRPRPKQWPRP | 0.474
RRIRTRPPRLPRPRPRPIHWPRP | 0.0444
RRIRTRPPRLPRPRPRPPPFPRP | 0.452
RRIRRRPPRLPRPRPRPGFSPRP | 0.131
RRIRERPPRLPRPRPRPQMHPRP | -0.634
RRIRARPPRLPRPRPRPWHKPRP | 0.0323
